Data on 140 substances can be found in the supplement of paper PMC12042874.

± gives the uncertainty stated by the source.

The data set in a line: amyloid nucleation score (Sup35N fusion, yeast selection) (log enrichment); library NNK1; higher = more nucleation; inactive = no reads after selection. In short, it runs like this: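 On medium lacking adenine and uracil, psi-negative yeast expressing peptides of 20 random codons fused to Sup35N were grown 7 days at 30°C after a 24-hour induction with 100 μM copper sulfate. Illumina sequencing of input and output plasmid inserts gave the reads, and sequences under 100 input reads were excluded. The nucleation score is the DiMSum log enrichment of output over input reads, centred on the mode score of non-aggregating sequences.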
Substance LLSCSYMKIVFI returned an amyloid nucleation score of 1.47 ± 0.16.

DSLSNLCDFCSSK showed an amyloid nucleation score of 0.668 ± 0.5. Under KILRYSTTGSSELEWWNMRS stands 0.069 ± 0.49.

With SNNYLLCGIDGEVL, the amyloid nucleation score came out at 1.07 ± 0.66. PALNRFLGTERDYDRYAGIA: the amyloid nucleation score is -0.8 ± 0.49. With EVMDTLYLLLVCRYFAKCIT the entry was “inactive”; with FWTAPKLARDMSVLVTVFFY, -1.4 ± 2.1.

With LNHNIFVFFLQIIQTHDIWF, the amyloid nucleation score amounted to 4.87 ± 0.09. For RTHEFQTLMEAFRSNTAVSA, the amyloid nucleation score was -0.031 ± 0.22. Under IVCSGLCHIN stands 7.08 ± 0.071; under CYDQKILLLLISVTYVRTSD, -0.34 ± 1.

Take QYVPNTLDNSPDAVGMSNIY: the amyloid nucleation score is -0.29 ± 1.7. Under FINWLPNNDHFFCRNWICLQ stands 5.902 ± 0.05. As for LRDISEH, the amyloid nucleation score is -0.588 ± 0.53. Regarding FWPGFSWSIKLQLTFG, the amyloid nucleation score was -0.326 ± 0.3. The substance IRTNKVFASMPYDNSDTFCS registered an amyloid nucleation score of -1.5 ± 1.9. As to SCLWGMRLKL, the amyloid nucleation score is -0.366 ± 0.8. In the case of IVPRAFIAWIAYQGRSPYGA, the amyloid nucleation score is 0.619 ± 1.2.

With AQNLDPQWWCLVRCDCYPL, the amyloid nucleation score was -0.49 ± 0.65. With IRMLSRSLSKMSIIFHGGKG the figure was 1.33 ± 0.46; with DSYILRGNSVLGGGTFSVIR, 0.062 ± 0.53. The substance MLRSNVLYLIHRALCLWCVT displayed an amyloid nucleation score of 2.42 ± 0.17.

RFFCSD: the amyloid nucleation score amounted to 0.641 ± 0.97. Turning to EAMLKFTVYTIVRSFNAKSR, the amyloid nucleation score came out at 1.11 ± 0.32.

VSLFLYISLSLRIVRRYVRV returned an amyloid nucleation score of 0.263 ± 0.27. Under HYKDSITVFFIFHIPIQMMM stands 4.25 ± 0.057. As for VRDKSGPYYSSV, the amyloid nucleation score was determined as 0.705 ± 0.4. Consider SQVGALFDVPQSVNDSFKNM, for which the amyloid nucleation score is 0.399 ± 0.57. With IGYRYQSMLGCEGGRWWWVV the figure was 0.45 ± 0.58. For WRYKIIRSR, the amyloid nucleation score came out at 1.5 ± 0.4.

For HWYVTVCLVSMCQVGKGKDN, the amyloid nucleation score worked out at 3.5 ± 0.087. As for GIFDLLYWLRELSLRKA, the amyloid nucleation score amounted to 1.14 ± 0.39.

Substance PLLQKSWIRALSFFVNHTS had an amyloid nucleation score of 0.126 ± 0.51. Substance WAYWRYVNENRSVCRRKVGF came in with an amyloid nucleation score of -0.053 ± 0.31. With GAIFYGVCCIRPNWNVVSTS the figure was 5.69 ± 0.059; with FLWSYWPCSVGTEMTSQVRI, -0.459 ± 0.82. Under TFRCKSCDLLYHRLENWSDW stands 2.66 ± 0.12. Under HIFVMIYVLMEDGSKKLTSM stands 0.99 ± 0.85.

For YIIWVYCVRMNSLHELLAMS, the amyloid nucleation score came to 0.684 ± 0.8. With YFPVGWLTLGISPCGVGDLF the figure was -0.151 ± 0.43. Under GIWVGHESVVIIVDMLYMLL stands 5.493 ± 0.046; under VYWNV, 1.1 ± 0.57; under CDSYSKMPPGRNILVCQFCW, 2.15 ± 0.11. VELLIEFLSRLGWIGCRHVL: the amyloid nucleation score came to 0.08 ± 0.86. As for FPILVCVLKVLDVVLSDRVL, the amyloid nucleation score result is “inactive”.

In the case of MLWSL, the amyloid nucleation score came out at 0.342 ± 0.59. For WDWGMCTCRWRDSAASWGKR, the amyloid nucleation score is 0.432 ± 0.34. In turn, FYQTS displayed an amyloid nucleation score of 0.634 ± 0.4.

As for LVAATP, the amyloid nucleation score is 0.898 ± 0.66. HQKACCSRLMNCGYNSAKWR showed an amyloid nucleation score of -0.612 ± 0.89.

As to VVEKYSCIRESFHEGFG, the amyloid nucleation score was -1.07 ± 1.7.

The substance GSGSYRGTRLECLCFW yielded an amyloid nucleation score of 0.025 ± 1.1. Turning to NYIVLFSSRDVCTHNMYKTV, the amyloid nucleation score was 0.342 ± 0.71. Substance LLKSKRL gave an amyloid nucleation score of 0.563 ± 0.43. The substance VNVITCLY came in with an amyloid nucleation score of -1.33 ± 1.4.

In turn, FCCNWSCNCLRMG returned an amyloid nucleation score of 7.799 ± 0.051. With GLYPKYNVGLNN, the amyloid nucleation score is -0.376 ± 0.56. The substance HLRWQMDWCSHNNGMDVMRG had an amyloid nucleation score of 3.71 ± 0.12. Under LNHCVNMLRGRCGVPLLSVV stands 0.551 ± 1.1; under VYILLRVRVWSFYVVVVSRF, 0.484 ± 0.28; under GNFLFCTVDRHLTGSCS, 0.589 ± 0.47. With ADACVRFLRGYYFNGFPMRW the figure was 1.03 ± 0.9; with SGILNAKLNSIGIEKSYAGF, -2.07 ± 2.4; with IVNSKCRFWYYINGTVIFFL, 6.331 ± 0.059.

Take YVRGSGMAPGD: the amyloid nucleation score entry was “inactive”.

In turn, IFTVTGNCTGGAHTQDVVWF showed an amyloid nucleation score of 0.381 ± 0.77. VKSQCECHVSSFALFCWARD displayed an amyloid nucleation score of 3.85 ± 0.1. With ESVTWSWE the figure was 0.505 ± 0.39; with QSDKCCLMYGECVHVVC, 2.83 ± 0.069; with LVHPSWN, -0.311 ± 0.77.

As to FCCMGDMYFCSDFQSVSLFL, the amyloid nucleation score is 8.454 ± 0.065. Consider SWFHGLEGVLSHATMSLGFA, for which the amyloid nucleation score turned out to be 0.1 ± 0.48. In the case of VMRVFILSMFWIVSECNRSY, the amyloid nucleation score turned out to be 2.38 ± 0.23.

Turning to FMIAFVFSKTRGQSIVSYSV, the amyloid nucleation score is -0.747 ± 0.85. For the substance SYLDLRLAVCHCNGA, the amyloid nucleation score was determined as 5.38 ± 0.055. Under EYICLLTDSCNDTVLFSCPR stands -0.583 ± 0.83. As to YRMSRLFTVVGAPVGSSLNF, the amyloid nucleation score is -1.58 ± 2.4.

AFCNVADCNIRGSWLVRLRR displayed an amyloid nucleation score of 1.21 ± 0.41. SVNAYTSRTGRWMVMNSLVS: the amyloid nucleation score was -0.186 ± 1.9. Under FSALYPGREISA stands 1.51 ± 0.84; under TYWEMVHWGQEASMGSIRRR, 1.97 ± 0.24; under KETSGYRFYRMANLP, -0.21 ± 1.2.

FNLVKT: the amyloid nucleation score was found to be 0.704 ± 0.69. For RKNSNDEASS, the amyloid nucleation score was -0.339 ± 0.31. With VFSCWKAVILIPVQGVLVQR the figure was 0.616 ± 0.41. For SIGYMNLDRVI, the amyloid nucleation score is -0.944 ± 0.39. Turning to KNDGYIH, the amyloid nucleation score is -0.561 ± 1.4.

As to NKWYVF, the amyloid nucleation score came to 0.071 ± 1.1. As to PYRFSYKVVESSICDNLRRR, the amyloid nucleation score is -0.094 ± 0.35. EKWGGGVM: the amyloid nucleation score was -0.08 ± 0.58. Under LLCDWDGQ stands 0.497 ± 0.43. With MCMQKVL the figure was -0.263 ± 1.4. With TLIRGIIISRWRRVRNIDE the figure was -0.216 ± 0.3; with MVWVKGEDCFVDQACLRGAV, 1.03 ± 0.72.

The substance GKYKI returned an amyloid nucleation score of -0.476 ± 0.63. With WYVLDDLHWIQGCNIGIVGG the entry was “inactive”; with NDIYLDGNVFKF, -0.477 ± 0.37; with HLIKRYGYSCVRWVC, 0.003 ± 0.53. With SYLTWDHLEVNLCTYSILGR the figure was 0.45 ± 0.52; with AVFWSNYCSMSCMSKTKKKS, 0.159 ± 0.51; with AFCIFCSRLAEIAHLAF, 7.133 ± 0.046. With RTLHRLLSSINAKGDRYRLR the figure was -0.935 ± 1.9; with VEEAYER, -0.485 ± 0.5. In turn, LVSGRRGRRESSNHMVGLLE gave an amyloid nucleation score of 0.968 ± 0.51.

In the case of SSQDYAHSIAGLVYGC, the amyloid nucleation score was -0.137 ± 0.98. For the substance IVLGYFRGIHFLGVLGMLIK, the amyloid nucleation score result is “inactive”. Under TSSSRSIDR stands 0.16 ± 0.35; under IWCSCAYRGVGMSTGFAIIY, 1.13 ± 0.58.

Take TVLPF: the amyloid nucleation score is 1.6 ± 0.55. For the substance RDHMAYYMSVVGSSKNPLRR, the amyloid nucleation score result was “inactive”.

Regarding DRLMFRYSIRRIRFVSESSP, the amyloid nucleation score stood at 1.41 ± 0.43. Under FGIIGEERNLRAAPMAGGRP stands -0.455 ± 1.2; under SSVLATFIKLQHQGRKRKDR, -0.198 ± 0.29; under AEKSFWHSSNPFIALPRTHR, -1 ± 0.93. MLEQAFESFPTWRTT had an amyloid nucleation score of -0.06 ± 0.5. With VYRRIYNFECWSSKCMLGYP the figure was -0.129 ± 1.6; with IMNLSRNRVGLRVYGI, -0.029 ± 0.41; with SKARKIWYAWLVTPPMRQTE, 0.667 ± 0.3. Under LVPVIKEQFCCHVWVMV stands “inactive”. In turn, WAILNDVMYHMWLNTFRTNV returned an amyloid nucleation score of -0.295 ± 0.64. With NRRMCFRCIFGFHVCKLNGW the figure was -0.027 ± 0.5.

DFILLVVLYFVLYFFTCMVL registered an amyloid nucleation score of 0.22 ± 0.72. Under LRWLSRKILLTVRASN stands -0.125 ± 0.33; under SNDCRMLWMIWKTGSACLDP, 0.271 ± 0.43; under LACCFIVSWFNGSGSLTSRS, 7.497 ± 0.05. Under KTRFMLVLKLKRDNDLKMRF stands -0.288 ± 0.3.

VTSDLLD displayed an amyloid nucleation score of 0.283 ± 0.4. With SSSFPVMVYTHDAANCHRML the figure was -0.763 ± 0.41. In turn, RIVLILRSNHCQNSY gave an amyloid nucleation score of 0.641 ± 0.3. With DNNTVITIEQC the figure was 0.286 ± 1; with AFNSFIGFHCPSDVWCMKRN, 5.25 ± 0.051. VYLVGASWPADVDEFGGRKD registered an amyloid nucleation score of -0.402 ± 0.54. Turning to VGLTARHKCWVGTCRGGPRT, the amyloid nucleation score is -0.711 ± 1.3. Under DDVVWNYSTA stands -0.487 ± 0.58; under LRTDALFY, 0.577 ± 0.69; under VCYVAMLNHTSPMSLASSAR, “inactive”. Under GVQAVNVEVVNEVCLVKEAT stands -0.153 ± 0.46; under GWSNNCAFNLQFGISKKN, 1.54 ± 0.47. With AFIKNLTLCLDWTHSGAVYM the figure was 7.24 ± 0.08. AHFVRVDHNGGGLCMLGISR came in with an amyloid nucleation score of -1.21 ± 0.86.
